Results from PMC9897468 (Proceedings of the National Academy of Sciences of the …, 2022).

B1: full-length mouse KIF5AA homodimer (kinesin-1), unlabeled (natural protein, UniProt P33175 1-1027, looked up)
chain: MAETNNECSIKVLCRFRPLNQAEILRGDKFIPIFQGDDSVIIGGKPYVFDRVFPPNTTQEQVYHACAMQIVKDVLAGYNGTIFAYGQTSSGKTHTMEGKLHDPQLMGIIPRIARDIFNHIYSMDENLEFHIKVSYFEIYLDKIRDLLDVTKTNLSVHEDKNRVPFVKGCTERFVSSPEEILDVIDEGKSNRHVAVTNMNEHSSRSHSIFLINIKQENVETEQKLSGKLYLVDLAGSEKVSKTGAEGAVLDEAKNINKSLSALGNVISALAEGTKSYVPYRDSKMTRILQDSLGGNCRTTMFICCSPSSYNDAETKSTLMFGQRAKTIKNTASVNLELTAEQWKKKYEKEKEKTKAQKETIAKLEAELSRWRNGENVPETERLAGEDSALGAELCEETPVNDNSSIVVRIAPEERQKYEEEIRRLYKQLDDKDDEINQQSQLIEKLKQQMLDQEELLVSTRGDNEKVQRELSHLQSENDAAKDEVKEVLQALEELAVNYDQKSQEVEEKSQQNQLLVDELSQKVATMLSLESELQRLQEVSGHQRKRIAEVLNGLMRDLSEFSVIVGNGEIKLPVEISGAIEEEFTVARLYISKIKSEVKSVVKRCRQLENLQVECHRKMEVTGRELSSCQLLISQHEAKIRSLTEYMQTVELKKRHLEESYDSLSDELARLQAHETVHEVALKDKEPDTQDAEEVKKALELQMENHREAHHRQLARLRDEINEKQKTIDELKDLNQKLQLELEKLQADYERLKNEENEKSAKLQELTFLYERHEQSKQDLKGLEETVARELQTLHNLRKLFVQDVTTRVKKSAEMEPEDSGGIHSQKQKISFLENNLEQLTKVHKQLVRDNADLRCELPKLEKRLRATAERVKALEGALKEAKEGAMKDKRRYQQEVDRIKEAVRYKSSGKRGHSAQIAKPVRPGHYPASSPTNPYGTRSPECISYTNNLFQNYQNLHLQAAPSSTSDMYFASSGATSVAPLASYQKANMDNGNATDINDNRSDLPCGYEAEDQAKLFPLHQETAAS
B2: C-terminal APC fragment (APC-C), residues 2,163 to 2,845 (domain or fragment, UniProt Q61315 2163-2845, looked up)
chain: KGPRILKPGEKSTLEAKKIESENKGIKGGKKVYKSLITGKIRSNSEISSQMKQPLPTNMPSISRGRTMIHIPGLRNSSSSTSPVSKKGPPLKTPASKSPSEGPGATTSPRGTKPAGKSELSPITRQTSQISGSNKGSSRSGSRDSTPSRPTQQPLSRPMQSPGRNSISPGRNGISPPNKLSQLPRTSSPSTASTKSSGSGKMSYTSPGRQLSQQNLTKQASLSKNASSIPRSESASKGLNQMSNGNGSNKKVELSRMSSTKSSGSESDSSERPALVRQSTFIKEAPSPTLRRKLEESASFESLSPSSRPDSPTRSQAQTPVLSPSLPDMSLSTHPSVQAGGWRKLPPNLSPTIEYNDGRPTKRHDIARSHSESPSRLPINRAGTWKREHSKHSSSLPRVSTWRRTGSSSSILSASSESSEKAKSEDERHVSSMPAPRQMKENQVPTKGTWRKIKESDISPTGMASQSASSGAASGAESKPLIYQMAPPVSKTEDVWVRIEDCPINNPRSGRSPTGNTPPVIDSVSEKGSSSIKDSKDSKDTHGKQSVGSGSPVQTVGLETRLNSFVQVEAPEQKGTEAKPGQSNPVSIAETAETCIAERTPFSSSSSSKHSSPSGTVAARVTPFNYNPSPRKSSADSTSARPSQIPTPVSTNTKKRDSKTDITESSGAQSPKRHSGSYLVTSV
modifications: Alexa647 label (APC-C-647, in the TIRF-M experiments)

Tests used:
APC-mGFP = APC-mGFP (UniProt Q61315 1-2845); experiment: TIRF-M in vitro motility reconstitution
[1] = target: B1; experiment: TIRF-M in vitro motility reconstitution

Binder | binding result (APC-mGFP) | binding result [1]
B1 | binds | –
B2 | – | binds
